# Patent US20240327535A1 (EISAI R AND D MANAGEMENT, published 2024)
# Substitutions are numbered along the chain they refer to.
# B1: AB200-R1H26-R2Vk1 (Fab, V domains shown)
# VH: QVQLVQSGAEVKKPGSSVKVSCKASGGSFSNYWMHWVRQAPGQGLEWMGATYRIHSDTFYNQKFKGRVTITADKSTSTAYMELSSLRSEDTAVYYCARGAIYHGYDVLDNWGQGTLVTVSS
# VL: DIQMTQSPSSLSASVGDRVTITCRASQSISSYLNWYQQKPGKAPKLLIYAASSLQSGVPSRFSGSGSGTDFTLTISSLQPEDFATYYCQQFRKLPWSFGQGTKLEIKR
# B2: AB200-R1H26-R2Vk17 (Fab, V domains shown)
# VH: B1 VH
# VL: B1 VL with L33I, F91Y, L94I
# B3: AB200-R1H26-R2Vk16 (Fab, V domains shown)
# VH: B1 VH
# VL: B1 VL with L33I, K93R, S97T
# B4: AB200-R1H26-R2Vk15 (Fab, V domains shown)
# VH: B1 VH
# VL: B1 VL with L33I, F91Y, K93R, L94I, S97T
# B5: AB200-R1H26-R2Vk14 (Fab, V domains shown)
# VH: B1 VH
# VL: B1 VL with L33I, F91Y, K93R
# B6: AB200-R1H26-R2Vk2 (Fab, V domains shown)
# VH: B1 VH
# VL: B1 VL with L33I
# B7: AB200-R1H26-R2Vk18 (Fab, V domains shown)
# VH: B1 VH
# VL: B1 VL with L33I, L94I, S97T
# B8: AB200-R1H26-R2Vk23 (Fab, V domains shown)
# VH: B1 VH
# VL: B1 VL with A51T, S53N, L94I, S97T
# B9: AB200-R1H26-R2Vk35 (Fab, V domains shown)
# VH: B1 VH
# VL: B1 VL with L33I, A51T, S53N, F91Y, K93R, L94I, S97T
# B10: AB200-R1H26-R2Vk42 (Fab, V domains shown)
# VH: B1 VH
# VL: B1 VL with L33I, A51T, S53N, L54I, F91Y, L94I
# B11: AB200-R1H26-R2Vk47 (Fab, V domains shown)
# VH: B1 VH
# VL: B1 VL with L33I, A51T, S53N, S56I, F91Y, L94I
# B12: AB200-R1H26-R2Vk21 (Fab, V domains shown)
# VH: B1 VH
# VL: B1 VL with A51T, S53N, K93R, S97T
# B13: AB200-R1H26-R2Vk45 (Fab, V domains shown)
# VH: B1 VH
# VL: B1 VL with L33I, A51T, S53N, S56I, F91Y, K93R, L94I, S97T
# B14: AB200-R1H26-R2Vk39 (Fab, V domains shown)
# VH: B1 VH
# VL: B1 VL with L33I, A51T, S53N, L54I, F91Y, K93R
# B15: AB200-R1H26-R2Vk29 (Fab, V domains shown)
# VH: B1 VH
# VL: B1 VL with A51T, S53N, S56I, F91Y, K93R
# B16: AB200-R1H26-R2Vk27 (Fab, V domains shown)
# VH: B1 VH
# VL: B1 VL with A51T, S53N, L54I, F91Y, L94I
# B17: AB200-R1H26-R2Vk10 (Fab, V domains shown)
# VH: B1 VH
# VL: B1 VL with F91Y, K93R, L94I, S97T
# B18: AB200-R1H26-R2Vk9 (Fab, V domains shown)
# VH: B1 VH
# VL: B1 VL with F91Y, K93R
# B19: AB200-R1H26-R2Vk3 (Fab, V domains shown)
# VH: B1 VH
# VL: B1 VL with A51T, S53N
# B20: AB200-R1H26-R2Vk26 (Fab, V domains shown)
# VH: B1 VH
# VL: B1 VL with A51T, S53N, L54I, K93R, S97T
# B21: AB200-R1H26-R2Vk43 (Fab, V domains shown)
# VH: B1 VH
# VL: B1 VL with L33I, A51T, S53N, L54I, L94I, S97T
# B22: AB200-R1H26-R2Vk33 (Fab, V domains shown)
# VH: B1 VH
# VL: B1 VL with A51T, S53N, S56I, L94I, S97T
# B23: AB200-R1H26-R2Vk46 (Fab, V domains shown)
# VH: B1 VH
# VL: B1 VL with L33I, A51T, S53N, S56I, K93R, S97T
# B24: AB200-R1H26-R2Vk25 (Fab, V domains shown)
# VH: B1 VH
# VL: B1 VL with A51T, S53N, L54I, F91Y, K93R, L94I, S97T
# B25: AB200-R1H26-R2Vk8 (Fab, V domains shown)
# VH: B1 VH
# VL: B1 VL with L33I, A51T, S53N, S56I
# B26: AB200-R1H26-R2Vk34 (Fab, V domains shown)
# VH: B1 VH
# VL: B1 VL with L33I, A51T, S53N, F91Y, K93R
# B27: AB200-R1H26-R2Vk38 (Fab, V domains shown)
# VH: B1 VH
# VL: B1 VL with L33I, A51T, S53N, L94I, S97T
# B28: AB200-R1H26-R2Vk19 (Fab, V domains shown)
# VH: B1 VH
# VL: B1 VL with A51T, S53N, F91Y, K93R
# B29: AB200-R1H26-R2Vk4 (Fab, V domains shown)
# VH: B1 VH
# VL: B1 VL with A51T, S53N, L54I
# B30: AB200-R1H26-R2Vk36 (Fab, V domains shown)
# VH: B1 VH
# VL: B1 VL with L33I, A51T, S53N, K93R, S97T
# B31: AB200-R1H26-R2Vk20 (Fab, V domains shown)
# VH: B1 VH
# VL: B1 VL with A51T, S53N, F91Y, K93R, L94I, S97T
# B32: AB200-R1H26-R2Vk28 (Fab, V domains shown)
# VH: B1 VH
# VL: B1 VL with A51T, S53N, L54I, L94I, S97T
# B33: AB200-R1H26-R2Vk48 (Fab, V domains shown)
# VH: B1 VH
# VL: B1 VL with L33I, A51T, S53N, S56I, L94I, S97T
# B34: AB200-R1H26-R2Vk24 (Fab, V domains shown)
# VH: B1 VH
# VL: B1 VL with A51T, S53N, L54I, F91Y, K93R
# B35: AB200-R1H26-R2Vk13 (Fab, V domains shown)
# VH: B1 VH
# VL: B1 VL with L94I, S97T
# B36: AB200-R1H26-R2Vk12 (Fab, V domains shown)
# VH: B1 VH
# VL: B1 VL with F91Y, L94I
# B37: AB200-R1H26-R2Vk44 (Fab, V domains shown)
# VH: B1 VH
# VL: B1 VL with L33I, A51T, S53N, S56I, F91Y, K93R
# B38: AB200-R1H26-R2Vk5 (Fab, V domains shown)
# VH: B1 VH
# VL: B1 VL with A51T, S53N, S56I
# B39: AB200-R1H26-R2Vk7 (Fab, V domains shown)
# VH: B1 VH
# VL: B1 VL with L33I, A51T, S53N, L54I
# B40: AB200-R1H26-R2Vk40 (Fab, V domains shown)
# VH: B1 VH
# VL: B1 VL with L33I, A51T, S53N, L54I, F91Y, K93R, L94I, S97T
# B41: AB200-R1H26-R2Vk32 (Fab, V domains shown)
# VH: B1 VH
# VL: B1 VL with A51T, S53N, S56I, F91Y, L94I
# B42: AB200-R1H26-R2Vk31 (Fab, V domains shown)
# VH: B1 VH
# VL: B1 VL with A51T, S53N, S56I, K93R, S97T
# B43: AB200-R1H26-R2Vk41 (Fab, V domains shown)
# VH: B1 VH
# VL: B1 VL with L33I, A51T, S53N, L54I, K93R, S97T
# B44: AB200-R1H26-R2Vk30 (Fab, V domains shown)
# VH: B1 VH
# VL: B1 VL with A51T, S53N, S56I, F91Y, K93R, L94I, S97T
# B45: AB200-R1H26-R2Vk37 (Fab, V domains shown)
# VH: B1 VH
# VL: B1 VL with L33I, A51T, S53N, F91Y, L94I
# B46: AB200-R1H26-R2Vk11 (Fab, V domains shown)
# VH: B1 VH
# VL: B1 VL with K93R, S97T
# B47: AB200-R1H26-R2Vk22 (Fab, V domains shown)
# VH: B1 VH
# VL: B1 VL with A51T, S53N, F91Y, L94I
# B48: AB200-R1H26-R2Vk6 (Fab, V domains shown)
# VH: B1 VH
# VL: B1 VL with L33I, A51T, S53N
# Target: T1, extracellular domain of human BCMA (human, UniProt Q02223 1-54)
# T1 construct: amine-linked to Octet AR2G tips; also called hsBCMA; BCMA (human)
# T1 sequence: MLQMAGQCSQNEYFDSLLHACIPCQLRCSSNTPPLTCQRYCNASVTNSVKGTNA
# Assay: Octet BLI; Fab 200 nM
row,Binder,Kd [nM]
1,B1,2.04
2,B2,3.59
3,B3,2.09
4,B4,3.27
5,B5,2.52
6,B6,2.37
7,B7,3.44
8,B8,2.28
9,B9,1.76
10,B10,2.42
11,B11,1.73
12,B12,1.27
13,B13,1.57
14,B14,1.83
15,B15,1.18
16,B16,2.33
17,B17,3.23
18,B18,2.35
19,B19,1.62
20,B20,1.46
21,B21,3.23
22,B22,1.74
23,B23,1.35
24,B24,2.04

row,Binder,Kd [nM]
1,B25,1.69
2,B26,1.55
3,B27,2.85
4,B28,1.62
5,B29,1.7
6,B30,1.67
7,B31,2.1
8,B32,2.68
9,B33,2.31
10,B34,1.62
11,B35,3.02
12,B36,3.72
13,B37,1.28
14,B38,1.29
15,B39,2.17
16,B40,2.34
17,B41,1.93
18,B42,1.1
19,B43,1.87
20,B44,1.74
21,B45,2.3
22,B46,1.55
23,B47,2.24
24,B48,2.08
